Series [1] has as its target T1, PcCel7D (Phanerodontia chrysosporium, UniProt Q7LIJ0).
T1 sequence (Q7LIJ0 19-510): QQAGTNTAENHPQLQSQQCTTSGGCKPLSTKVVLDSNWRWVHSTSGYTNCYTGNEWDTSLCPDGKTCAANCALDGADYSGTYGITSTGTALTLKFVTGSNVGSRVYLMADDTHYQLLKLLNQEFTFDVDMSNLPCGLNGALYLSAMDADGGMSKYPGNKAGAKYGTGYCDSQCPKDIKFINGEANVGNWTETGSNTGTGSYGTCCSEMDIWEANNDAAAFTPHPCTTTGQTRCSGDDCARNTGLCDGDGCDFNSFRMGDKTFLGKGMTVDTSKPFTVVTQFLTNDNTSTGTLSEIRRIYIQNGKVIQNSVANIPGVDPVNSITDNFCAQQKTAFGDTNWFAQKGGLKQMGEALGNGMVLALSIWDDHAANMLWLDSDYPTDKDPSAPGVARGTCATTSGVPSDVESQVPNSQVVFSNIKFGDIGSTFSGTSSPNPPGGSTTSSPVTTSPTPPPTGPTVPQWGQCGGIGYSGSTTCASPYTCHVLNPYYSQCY
Kind of series: inhibition of pNPL hydrolysis, absorbance of pNP at […] nm. The settings on record: read-out: K i for lactose (μM) ^b; pNPL as substrate, 0.2 mM lactose; competitive; 10 mM sodium acetate, pH 5.0, 20 °C. Type of series: biochemical.

Series [2] concerns the target T2, TrCel7A (Trichoderma reesei, UniProt P62694).
T2 sequence (P62694 18-513): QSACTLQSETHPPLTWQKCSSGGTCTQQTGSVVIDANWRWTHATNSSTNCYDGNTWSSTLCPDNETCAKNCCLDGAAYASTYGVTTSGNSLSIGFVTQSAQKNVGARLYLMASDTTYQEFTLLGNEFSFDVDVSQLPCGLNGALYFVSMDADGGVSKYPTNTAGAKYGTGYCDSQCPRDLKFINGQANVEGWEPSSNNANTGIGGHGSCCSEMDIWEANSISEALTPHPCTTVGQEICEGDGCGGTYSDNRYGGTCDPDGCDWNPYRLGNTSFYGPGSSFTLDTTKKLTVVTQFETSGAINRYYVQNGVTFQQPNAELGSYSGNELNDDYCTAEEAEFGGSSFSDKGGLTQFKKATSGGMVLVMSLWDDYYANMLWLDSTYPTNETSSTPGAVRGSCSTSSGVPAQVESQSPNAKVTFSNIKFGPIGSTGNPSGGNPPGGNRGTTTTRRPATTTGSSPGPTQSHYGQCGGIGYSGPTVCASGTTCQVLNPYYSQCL
The series is described as above. Type of series: biochemical. Conditions: read-out: K i for lactose (μM) ^b; pNPL as substrate, 0.2 mM lactose; competitive; 10 mM sodium acetate, pH 5.0, 20 °C.

In series [3] the target is T3, TrCel7A (Trichoderma reesei, UniProt P62694, E229Q).
T3 sequence (P62694 18-513 E229Q): T2 sequence (P62694 18-513) with E212Q
The series is described as follows: intrinsic protein fluorescence quenching titration. Type of series: binding.

The target of series [4] is T1, PcCel7D. Kind of series: intrinsic protein fluorescence quenching titration. Type of series: binding.
The target of series [5] is T2, TrCel7A. The series is described as follows: inhibition of MUC hydrolysis, fluorometric. Format: biochemical.
The target in series [6] is T2, TrCel7A. The series is described as follows: intrinsic protein fluorescence quenching titration. Type of series: binding.
Series [7] concerns the target T4, TrCel7A (Trichoderma reesei, UniProt P62694, E234Q).
T4 sequence (P62694 18-513 E234Q): T2 sequence (P62694 18-513) with E217Q
Kind of series: intrinsic protein fluorescence quenching titration. Type of series: binding.

Series [8] has as its target T5, TrCel7A (Trichoderma reesei, UniProt P62694, D231N).
T5 sequence (P62694 18-513 D231N): T2 sequence (P62694 18-513) with D214N
The series is described as follows: intrinsic protein fluorescence quenching titration. Format: binding.

Substrate in series [9]: Cc1cc(=O)oc2cc(O[C@@H]3O[C@H](CO)[C@@H](O[C@@H]4O[C@H](CO)[C@@H](O)[C@H](O)[C@H]4O)[C@H](O)[C@H]3O)ccc12
Kind of series: purified protein. Conditions: 50 mM sodium acetate, pH 5.0, 25 °C.

Substrate in series [10]: O=[N+]([O-])c1ccc(O[C@@H]2O[C@H](CO)[C@@H](O[C@@H]3O[C@H](CO)[C@@H](O)[C@H](O)[C@H]3O)[C@H](O)[C@H]2O)cc1
Kind of series: purified protein. The settings on record: 50 mM sodium acetate, pH 5.0, 25 °C.

Substrate in series [11]: O=[N+]([O-])c1ccccc1O[C@@H]1O[C@H](CO)[C@@H](O[C@@H]2O[C@H](CO)[C@@H](O)[C@H](O)[C@H]2O)[C@H](O)[C@H]1O
The series is described as follows: purified protein. The settings on record: 50 mM sodium acetate, pH 5.0, 25 °C.

Substrate in series [12]: [H][C@@]1(O[C@H]2[C@H](O)[C@@H](O)[C@H](Oc3ccc([N+](=O)[O-])cc3)O[C@@H]2CO)O[C@H](CO)[C@H](O)[C@H](O)[C@H]1O
Kind of series: purified protein. The settings on record: 50 mM sodium acetate, pH 5.0, 25 °C.

Data on four molecules can be found in publication PMC10087753 (The Febs Journal, 2022).

Numbering of substitutions follows the chain as printed.

In the case of `OC[C@H]1O[C@@H](O[C@H]2[C@H](O)[C@@H](O)C(O)O[C@@H]2CO)[C@H](O)[C@@H](O)[C@H]1O` (some centres unmarked) [lactose], the figures for the Ki on PcCel7D [1] and on TrCel7A [2] were 183 ± 16 µM and 180 ± 16 µM, respectively.

With `O=[N+]([O-])c1ccccc1O[C@@H]1O[C@H](CO)[C@@H](O[C@@H]2O[C@H](CO)[C@@H](O)[C@H](O)[C@H]2O)[C@H](O)[C@H]1O` [oNPC, o-nitrophenyl-β-D-cellobioside], the dissociation constant Kd came to 4.7 ± 0.4 µM on TrCel7A [3]; 110 ± 10 µM at PcCel7D [4]; 7.4 ± 0.4 µM at TrCel7A [6]; 3.9 ± 0.4 µM on TrCel7A [7]; 7.1 ± 0.7 µM on TrCel7A [8]. For the same molecule, the Ki at TrCel7A [5] turned out to be 5.6 ± 0.5 µM.

B1: PcCel7D (Phanerodontia chrysosporium) (protein)
chain: T1 sequence (Q7LIJ0 19-510)
On to B1, for which the Michaelis-Menten constant (Km) turned out to be 210 ± 20 µM in the series “purified protein [9]”, 1300 ± 160 µM in “purified protein [10]”, 3200 ± 100 µM in the series “purified protein [11]” and 5500 ± 400 µM in “purified protein [12]”. Further, the turnover number (kcat) in “purified protein [9]” is 0.22 ± 0.01 s⁻¹; in “purified protein [10]”, 0.046 ± 0.0021 s⁻¹; in “purified protein [11]” it was 0.015 ± 0.002 s⁻¹; in “purified protein [12]” it was 0.17 ± 0.01 s⁻¹. In addition, the kcat/Km was found to be 1050 M⁻¹ s⁻¹ in the series “purified protein [9]”, 35 M⁻¹ s⁻¹ in “purified protein [10]”, 4.6 M⁻¹ s⁻¹ in “purified protein [11]” and 31 M⁻¹ s⁻¹ in “purified protein [12]”.

B2: TrCel7A (Trichoderma reesei) (protein)
chain: T2 sequence (P62694 18-513)
On to B2, for which, in the series “purified protein [9]”, the Km worked out at 12 ± 1 µM, the turnover number (kcat) came to 0.013 ± 0.001 s⁻¹ and the kcat/Km amounted to 1080 M⁻¹ s⁻¹.

Usually Kd stands for the constant that tells how readily two partners part at equilibrium. Low readings indicate higher affinity, high ones lower affinity. One may read the Km as the concentration of substrate that gives half-maximal velocity. In general, kcat refers to the maximal rate divided by the concentration of active sites. As usually defined, the kcat/Km is the turnover number divided by the Michaelis constant.
